Residue numbers refer to the chain shown, from its start.
T1: hiR2-FL-R543A-T7 (human, UniProt Q6PJF5 1-856)
T1 sequence: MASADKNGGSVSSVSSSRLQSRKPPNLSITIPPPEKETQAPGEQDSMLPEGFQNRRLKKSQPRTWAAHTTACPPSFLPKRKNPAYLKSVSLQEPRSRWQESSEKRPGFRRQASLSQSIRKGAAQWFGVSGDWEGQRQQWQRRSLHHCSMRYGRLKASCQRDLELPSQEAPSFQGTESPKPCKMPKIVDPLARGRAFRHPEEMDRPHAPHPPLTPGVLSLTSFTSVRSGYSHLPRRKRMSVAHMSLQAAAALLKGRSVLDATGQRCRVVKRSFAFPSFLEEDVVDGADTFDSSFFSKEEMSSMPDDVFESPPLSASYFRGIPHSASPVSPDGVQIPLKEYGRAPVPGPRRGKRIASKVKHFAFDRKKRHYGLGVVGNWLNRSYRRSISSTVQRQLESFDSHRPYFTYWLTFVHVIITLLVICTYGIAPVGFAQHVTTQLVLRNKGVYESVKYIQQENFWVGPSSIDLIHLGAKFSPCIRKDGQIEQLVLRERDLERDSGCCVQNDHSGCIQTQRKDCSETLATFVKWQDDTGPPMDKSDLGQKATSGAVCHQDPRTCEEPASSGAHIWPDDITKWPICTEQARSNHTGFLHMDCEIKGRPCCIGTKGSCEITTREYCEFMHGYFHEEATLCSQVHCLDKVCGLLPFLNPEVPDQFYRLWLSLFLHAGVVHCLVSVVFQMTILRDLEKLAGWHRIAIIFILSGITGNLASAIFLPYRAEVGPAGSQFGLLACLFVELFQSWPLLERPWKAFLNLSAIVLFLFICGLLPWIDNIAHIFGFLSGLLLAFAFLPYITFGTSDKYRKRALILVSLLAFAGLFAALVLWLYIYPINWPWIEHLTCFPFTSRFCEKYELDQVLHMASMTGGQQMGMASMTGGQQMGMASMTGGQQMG

T2: hiR2-FL-C508A-T7 (human, UniProt Q6PJF5 1-856)
T2 construct: reduced surface expression reported
T2 sequence: T1 sequence with C508A, A543R

B1: antibody 34 (antibody, V domains shown)
VH: QVTLKESGPGILQPSQTLSLTCSFSGFSLSTFSLGVGWIRQSSGKGLEWLAHIWWDDEKYYNPALKSRLTISKDTSKNQVFLKIANVDAADTATYYCARAYYSKSYYALDYWGQGTSVTVSS
VL: DIQMTQSPSSLSASLGERVSLTCRASQEISGYLSWLQQKPDGTIKRLIYAASTLDSGVPKRFSGSRSGSDYSLAISSLESEDFADYYCLQYANFPFTFGSGTKLEIK
notes: mouse IgG, kappa light chain; also called clone #34; purified antibody 34
B2: antibody 5 (antibody, V domains shown)
VH: QVTLKESGPGILQPSQTLSLTCSFSGFSLSTFGMGVGWIRQPSGKGLEWLAHIWWDDEKYYNSALKSRLTISKATSKNQAFLKIANVDTADTATYYCARISNYGSNYWYFNVWGTGTTVTVSS
VL: QVVLTQSPALMSASPGEKVTMTCSAGSSVSCMYWYQQKPGSSPRVLIYDTSNLASGVPARFTGSGSGTSYSLTISRMEAEDAASYYCQQWNSYPLTFGAGTKLELK
notes: mouse IgG, kappa light chain; also called clone #5; purified antibody 5
B3: antibody 43 (antibody, V domains shown)
VH: B2 VH with T3A, P42S, H52N, E58D, S63P, A74D, T75A, S101G, N111D
VL: QIVLTQSPAIMSASPGERVTMTCSANSRISYMYWYQQKPGSSPRLLIYDTSNLASGVPVRFSGSGSGTSYSLTISRMEAEDAATYNCQQWSSYPLTFGAGTKLELK
notes: mouse IgG, kappa light chain; also called clone #43; purified antibody 43
B4: antibody 44 (antibody, V domains shown)
VH: B2 VH with G44E, E58D, S63P, A74D, A80I, A85T, D91E, A98S, S101G, N111D
VL: QIVLTQSPAVMSASPGEKVTMTCTASSSVYYMYWYQQTPGSSPRLLIYDTSNLASGVPVRFSGSGSGTSYSLTISRMEAEDAATYYCQQWNTYPLTFGAGTKLELK
notes: mouse IgG, kappa light chain; also called clone #44; purified antibody 44
B5: antibody 42 (antibody, V domains shown)
VH: B2 VH with F24L, M34R, S63P, A74D, A80V, K83R, S101Q, N111D
VL: B3 VL with Q1L, R18K, S24G, N26T, Y33F, L45V, M77V, A82V, N86Y, S91N
notes: mouse IgG, kappa light chain; also called clone #42; purified antibody 42
B6: antibody 22 (antibody, V domains shown)
VH: B2 VH with A80V
VL: B2 VL with C31Y, S84T
notes: mouse IgG, kappa light chain; also called clone #22; purified antibody 22
B7: antibody 3 (antibody, V domains shown)
VH: QVTLKESGPGILQPSQTLSLTCSFSGFSLTTFAMGIGWVRQPSGKGLEWLAHIWWDGEKYNNPVLKSRLTISKDTSKNQVFLRIANVDTPDTATYYCARISSIYYIIDNWGQGTSVTVSS
VL: DIVLTQSPATLSVTPGHSVSLSCRASQSISNNLHWYQKKSHESPRLLIKYVSQSISGIPSRFSGSGSGTDFTLSINSVETEDFGMYFCQQSYNWPLTFGAGTKLELK
notes: mouse IgG, kappa light chain; also called clone #3; purified antibody 3

How the values were obtained:
hiR2-FL-R543A-T7 = target: T1, hiR2-FL-R543A-T7; test: FACS on MEF-DKO cells expressing the variant, 3 µg/ml antibody
Protocol: (§1) To pellet cells and remove supernatants, the plates were centrifuged at 1,500 rpm and 4° C. for 3 minutes. For primary staining, cells were resuspended in 100 μl per well of either FACS buffer alone (controls) or the purified antibodies 3, 5, 16, 22, 34, 42, 43, 44, 48, and 50 of the invention at 3 μg/ml in FACS buffer and incubated on ice for 1 hour. Afterwards, plates were centrifuged at 1,500 rpm and 4° C. for 3 minutes and washed twice with 200 μl per well of FACS buffer. For secondary staining, cells were spun down and resuspended in 100 μl per well of PE-conjugated goat anti-mouse IgG F(ab′)2 detection fragment (Dianova, Germany) diluted 1:100 in FACS buffer. Protected from light, the cell suspensions were incubated on ice for 1 hour. Plates were then centrifuged at 1,500 rpm and 4° C. for 3 minutes and washed three times with 200 μl per well of FACS buffer. Finally, cells were resuspended in 150 μl per well of FACS buffer and analyzed using a BD Accuri™ C6 Plus flow cytometer (Becton Dickinson, Germany).

hiR2-FL-C508A-T7 = target: T2, hiR2-FL-C508A-T7; test: as above
Protocol: as §1

Row | Binder | loss of binding vs wild type (hiR2-FL-R543A-T7) | loss of binding vs wild type (hiR2-FL-C508A-T7)
1 | B1 | ≥ 95% | ≥ 30%
2 | B2 | ≥ 60% | ≥ 30%
3 | B3 | ≥ 95% | ≥ 30%
4 | B4 | ≥ 95% | ≥ 30%
5 | B5 | ≥ 60% | ≥ 30%
6 | B6 | ≥ 60% | ≥ 30%
7 | B7 | ≥ 30% | –
